Assay results as given in patent US20260042831A1, “METHODS OF TREATING SARCOIDOSIS WITH A TNF-A ANTIBODY AND ASSOCIATED COMPOSITIONS AND METHODS” (XENTRIA, INC., priority 2022, published 2026).
pKd: −log10 of the molar value.

Target: FcγRIIb (UniProt P31994)
Experiment: Octet QK384, FcγRIIb on Ni-NTA biosensors, 6 XTMAB-16 concentrations, 1:2 heterogeneous ligand model fit

FcγRIIb, sequence (P31994 43-217): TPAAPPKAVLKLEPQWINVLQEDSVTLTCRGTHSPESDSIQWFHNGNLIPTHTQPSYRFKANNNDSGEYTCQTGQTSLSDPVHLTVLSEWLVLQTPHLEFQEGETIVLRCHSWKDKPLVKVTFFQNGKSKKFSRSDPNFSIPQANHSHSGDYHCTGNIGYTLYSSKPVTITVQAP

## XTMAB-16 (antibody)
  pKd: 6.19
